Legend:
PD-1 (binding assay) = PD-1 (binding assay) (UniProt Q15116 25-167, limits assumed); test: FCM or ELISA, graded
PD-1 = target: T1, PD-1 (human, UniProt Q15116 25-167, limits assumed); test: FCM or ELISA
T1 construct: The reporter assay used Jurkat T cells expressing human PD-1

CD3 = CD3 (human); test: CD3 binding, as described in Example 2 (ELISA or FCM)
Sequence of CD3 (human) (chain, as listed by the source): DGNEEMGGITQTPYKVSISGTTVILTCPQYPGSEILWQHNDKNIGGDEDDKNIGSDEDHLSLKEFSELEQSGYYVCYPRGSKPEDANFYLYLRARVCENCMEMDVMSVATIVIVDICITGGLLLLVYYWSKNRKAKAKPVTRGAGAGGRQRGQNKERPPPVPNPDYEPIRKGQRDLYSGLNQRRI

Sequence of PD-1 (binding assay) (Q15116 25-167 limits assumed): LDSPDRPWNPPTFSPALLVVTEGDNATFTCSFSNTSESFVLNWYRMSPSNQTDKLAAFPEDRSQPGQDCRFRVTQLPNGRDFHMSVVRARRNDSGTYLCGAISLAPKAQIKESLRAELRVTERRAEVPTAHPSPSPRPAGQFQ
T1 sequence (Q15116 25-167 limits assumed): as above

B1: Ly2281 (bispecific antibody)
heavy 1: QVTLKESGPALVKPTQTLTLTCTFSGFSLSTSGTCVSWIRQPPGKALEWLATICWEDSKGYNPSLKSRLTISKDTSKNQAVLTMTNMDPVDTATYYCARREDSGYFWFPYWGQGTLVTVSSASTKGPSVFPLAPSSKSTSGGTAALGCLVKDYFPEPVTVSWNSGALTSGVHTFPAVLQSSGLYSLSSVVTVPSSSLGTQTYICNVNHKPSNTKVDKKVEPKSCGGGGSGGGGSGGGGSGGGGSQVQLVQSGAEVKKPGASVKVSCKASGYTFAGFEMHWVRQAPGQGLEWMGAIDPKTGGTDYNQKFKDRVTMTRDTSISTAYMELSRLRSDDTAVYYCARDLGYFDVWGQGTLVTVSSGGGGSDKTHTCPPCPAPEAAGPSVFLFPPKPKDTLMISRTPEVTCVVVDVSHEDPEVKFNWYVDGVEVHNAKTKPREEQYNSTYRVVSVLTVLHQDWLNGKEYKCKVSNKALPAPIEKTISKAKGQPREPQVYTLPPSREEMTKNQVSLWCLVKGFYPSDIAVEWESNGQPENNYKTTPPVLDSDGSFFLYSKLTVDKSRWQQGNVFSCSVMHEALHNHYTQKSLSLSPG
heavy 2: QVTLKESGPALVKPTQTLTLTCTFSGFSLSTSGTCVSWIRQPPGKALEWLATICWEDSKGYNPSLKSRLTISKDTSKNQAVLTMTNMDPVDTATYYCARREDSGYFWFPYWGQGTLVTVSSASTKGPSVFPLAPSSKSTSGGTAALGCLVKDYFPEPVTVSWNSGALTSGVHTFPAVLQSSGLYSLSSVVTVPSSSLGTQTYICNVNHKPSNTKVDKKVEPKSCGGGGSGGGGSGGGGSGGGGSDIQMTQSPSSLSASVGDRVTITCRASQDIRSNLNWYQQKPGGAVKLLIYYTSRLHSGVPSRFSGSGSGTDYTLTISSLQPEDFATYFCQQSEKLPRTFGGGTKVEIRGGGGSDKTHTCPPCPAPEAAGPSVFLFPPKPKDTLMISRTPEVTCVVVDVSHEDPEVKFNWYVDGVEVHNAKTKPREEQYNSTYRVVSVLTVLHQDWLNGKEYKCKVSNKALPAPIEKTISKAKGQPREPQVYTLPPSREEMTKNQVSLSCAVKGFYPSDIAVEWESNGQPENNYKTTPPVLDSDGSFFLVSKLTVDKSRWQQGNVFSCSVMHEALHNRFTQKSLSLSPG
light: NIQMTQSPSSLSASVGDRVTITCKAGQNVNNYLAWYQQKPGKAPKVLIFNANSLQTGVPSRFSGSGSGTDFTLTISSLQPEDFATYYCQQYNSWPTFGGGTKVEIKRTVAAPSVFIFPPSDEQLKSGTASVVCLLNNFYPREAKVQWKVDNALQSGNSQESVTEQDSKDSTYSLSSTLTLSKADYEKHKVYACEVTHQGLSSPVTKSFNRGEC
notes: PD-1 Fabs (Ly516) x central CD137 Fv
- binding result (PD-1 (binding assay)): binds

B2: Ly2280 (bispecific antibody)
heavy 1: not shown
heavy 2: QVTLKESGPALVKPTQTLTLTCTFSGFSLSTSGTCVSWIRQPPGKALEWLATICWEDSKGYNPSLKSRLTISKDTSKNQAVLTMTNMDPVDTATYYCARREDSGYFWFPYWGQGTLVTVSSASTKGPSVFPLAPSSKSTSGGTAALGCLVKDYFPEPVTVSWNSGALTSGVHTFPAVLQSSGLYSLSSVVTVPSSSLGTQTYICNVNHKPSNTKVDKKVEPKSCGGGGSGGGGSGGGGSGGGGSDIQMTQSPSSVSASVGDRVTITCRASQGIYSWLAWYQQKPGKAPNLLIYTASTLQSGVPSRFSGSGSGTDFTLTISSLQPEDFATYYCQQANIFPLTFGGGTKVEIKGGGGSDKTHTCPPCPAPEAAGPSVFLFPPKPKDTLMISRTPEVTCVVVDVSHEDPEVKFNWYVDGVEVHNAKTKPREEQYNSTYRVVSVLTVLHQDWLNGKEYKCKVSNKALPAPIEKTISKAKGQPREPQVYTLPPSREEMTKNQVSLSCAVKGFYPSDIAVEWESNGQPENNYKTTPPVLDSDGSFFLVSKLTVDKSRWQQGNVFSCSVMHEALHNRFTQKSLSLSPG
light: NIQMTQSPSSLSASVGDRVTITCKAGQNVNNYLAWYQQKPGKAPKVLIFNANSLQTGVPSRFSGSGSGTDFTLTISSLQPEDFATYYCQQYNSWPTFGGGTKVEIKRTVAAPSVFIFPPSDEQLKSGTASVVCLLNNFYPREAKVQWKVDNALQSGNSQESVTEQDSKDSTYSLSSTLTLSKADYEKHKVYACEVTHQGLSSPVTKSFNRGEC
notes: PD-1 Fabs (Ly516) x central CD40 Fv (TM383)
- binding result (PD-1 (binding assay)): binds

B3: Ly2281 (bispecific antibody)
chain 1: QVTLKESGPALVKPTQTLTLTCTFSGFSLSTSGTCVSWIRQPPGKALEWLATICWEDSKGYNPSLKSRLTISKDTSKNQAVLTMTNMDPVDTATYYCARREDSGYFWFPYWGQGTLVTVSSASTKGPSVFPLAPSSKSTSGGTAALGCLVKDYFPEPVTVSWNSGALTSGVHTFPAVLQSSGLYSLSSVVTVPSSSLGTQTYICNVNHKPSNTKVDKKVEPKSCGGGGSGGGGSGGGGSGGGGSQVQLVQSGAEVKKPGASVKVSCKASGYTFAGFEMHWVRQAPGQGLEWMGAIDPKTGGTDYNQKFKDRVTMTRDTSISTAYMELSRLRSDDTAVYYCARDLGYFDVWGQGTLVTVSSGGGGSDKTHTCPPCPAPEAAGPSVFLFPPKPKDTLMISRTPEVTCVVVDVSHEDPEVKFNWYVDGVEVHNAKTKPREEQYNSTYRVVSVLTVLHQDWLNGKEYKCKVSNKALPAPIEKTISKAKGQPREPQVYTLPPSREEMTKNQVSLWCLVKGFYPSDIAVEWESNGQPENNYKTTPPVLDSDGSFFLYSKLTVDKSRWQQGNVFSCSVMHEALHNHYTQKSLSLSPG
chain 2: QVTLKESGPALVKPTQTLTLTCTFSGFSLSTSGTCVSWIRQPPGKALEWLATICWEDSKGYNPSLKSRLTISKDTSKNQAVLTMTNMDPVDTATYYCARREDSGYFWFPYWGQGTLVTVSSASTKGPSVFPLAPSSKSTSGGTAALGCLVKDYFPEPVTVSWNSGALTSGVHTFPAVLQSSGLYSLSSVVTVPSSSLGTQTYICNVNHKPSNTKVDKKVEPKSCGGGGSGGGGSGGGGSGGGGSDIQMTQSPSSLSASVGDRVTITCRASQDIRSNLNWYQQKPGGAVKLLIYYTSRLHSGVPSRFSGSGSGTDYTLTISSLQPEDFATYFCQQSEKLPRTFGGGTKVEIRGGGGSDKTHTCPPCPAPEAAGPSVFLFPPKPKDTLMISRTPEVTCVVVDVSHEDPEVKFNWYVDGVEVHNAKTKPREEQYNSTYRVVSVLTVLHQDWLNGKEYKCKVSNKALPAPIEKTISKAKGQPREPQVYTLPPSREEMTKNQVSLSCAVKGFYPSDIAVEWESNGQPENNYKTTPPVLDSDGSFFLVSKLTVDKSRWQQGNVFSCSVMHEALHNRFTQKSLSLSPG
light: NIQMTQSPSSLSASVGDRVTITCKAGQNVNNYLAWYQQKPGKAPKVLIFNANSLQTGVPSRFSGSGSGTDFTLTISSLQPEDFATYYCQQYNSWPTFGGGTKVEIKRTVAAPSVFIFPPSDEQLKSGTASVVCLLNNFYPREAKVQWKVDNALQSGNSQESVTEQDSKDSTYSLSSTLTLSKADYEKHKVYACEVTHQGLSSPVTKSFNRGEC
notes: PD-1/CD137: two PD-1 Fabs, central CD137 Fv
- binding result (PD-1): binds

B4: Ly2396 (bispecific antibody, human IgG1, kappa)
chain 1: QVTLKESGPALVKPTQTLTLTCTFSGFSLSTSGTCVSWIRQPPGKALEWLATICWEDSKGYNPSLKSRLTISKDTSKNQAVLTMTNMDPVDTATYYCARREDSGYFWFPYWGQGTLVTVSSASTKGPSVFPLAPSSKSTSGGTAALGCLVKDYFPEPVTVSWNSGALTSGVHTFPAVLQSSGLYSLSSVVTVPSSSLGTQTYICNVNHKPSNTKVDKKVEPKSCDKTHTCPPCPAPEAAGPSVFLFPPKPKDTLMISRTPEVTCVVVDVSHEDPEVKFNWYVDGVEVHNAKTKPREEQYNSTYRVVSVLTVLHQDWLNGKEYKCKVSNKALPAPIEKTISKAKGQPREPQVYTLPPSREEMTKNQVSLWCLVKGFYPSDIAVEWESNGQPENNYKTTPPVLDSDGSFFLYSKLTVDKSRWQQGNVFSCSVMHEALHNHYTQKSLSLSPGGGGGSGGGGSGGGGSGGGGSQVQLVQSGAEVKKPGASVKVSCKASGYTFAGFEMHWVRQAPGQGLEWMGAIDPKTGGTDYNQKFKDRVTMTRDTSISTAYMELSRLRSDDTAVYYCARDLGYFDVWGQGTLVTVSS
chain 2: QVTLKESGPALVKPTQTLTLTCTFSGFSLSTSGTCVSWIRQPPGKALEWLATICWEDSKGYNPSLKSRLTISKDTSKNQAVLTMTNMDPVDTATYYCARREDSGYFWFPYWGQGTLVTVSSASTKGPSVFPLAPSSKSTSGGTAALGCLVKDYFPEPVTVSWNSGALTSGVHTFPAVLQSSGLYSLSSVVTVPSSSLGTQTYICNVNHKPSNTKVDKKVEPKSCDKTHTCPPCPAPEAAGPSVFLFPPKPKDTLMISRTPEVTCVVVDVSHEDPEVKFNWYVDGVEVHNAKTKPREEQYNSTYRVVSVLTVLHQDWLNGKEYKCKVSNKALPAPIEKTISKAKGQPREPQVYTLPPSREEMTKNQVSLSCAVKGFYPSDIAVEWESNGQPENNYKTTPPVLDSDGSFFLVSKLTVDKSRWQQGNVFSCSVMHEALHNRFTQKSLSLSPGGGGGSGGGGSGGGGSGGGGSDIQMTQSPSSLSASVGDRVTITCRASQDIRSNLNWYQQKPGGAVKLLIYYTSRLHSGVPSRFSGSGSGTDYTLTISSLQPEDFATYFCQQSEKLPRTFGGGTKVEIR
light: NIQMTQSPSSLSASVGDRVTITCKAGQNVNNYLAWYQQKPGKAPKVLIFNANSLQTGVPSRFSGSGSGTDFTLTISSLQPEDFATYYCQQYNSWPTFGGGTKVEIKRTVAAPSVFIFPPSDEQLKSGTASVVCLLNNFYPREAKVQWKVDNALQSGNSQESVTEQDSKDSTYSLSSTLTLSKADYEKHKVYACEVTHQGLSSPVTKSFNRGEC
notes: PD-1/CD137: two PD-1 Fabs, terminal CD137 Fv
- binding result (PD-1): binds

B5: Ly2278 (bispecific antibody)
chain 1: QVQLQQSGAELVRPGSSVKISCKASGYAFSSYWMNWVKQRPGQGLEWIGQIWPGDGDTNYNGKFKGKATLTADESSSTAYMQLSSLASEDSAVYFCARRETTTVGRYYYAMDYWGQGTTVTVSSASTKGPSVFPLAPSSKSTSGGTAALGCLVKDYFPEPVTVSWNSGALTSGVHTFPAVLQSSGLYSLSSVVTVPSSSLGTQTYICNVNHKPSNTKVDKKVEPKSCGGGGSGGGGSGGGGSGGGGSEVQLVESGGGLVQPGGSLRLSCAASGFTFSTYAMNWVRQAPGKGLEWVGRIRSKYNNYATYYADSVKGRFTISRDDSKNSLYLQMNSLKTEDTAVYYCVRHGNFGNSYVSWFAYWGQGTLVTVSSGGGGSDKTHTCPPCPAPEAAGPSVFLFPPKPKDTLMISRTPEVTCVVVDVSHEDPEVKFNWYVDGVEVHNAKTKPREEQYNSTYRVVSVLTVLHQDWLNGKEYKCKVSNKALPAPIEKTISKAKGQPREPQVYTLPPSREEMTKNQVSLWCLVKGFYPSDIAVEWESNGQPENNYKTTPPVLDSDGSFFLYSKLTVDKSRWQQGNVFSCSVMHEALHNHYTQKSLSLSPG
chain 2: QVQLQQSGAELVRPGSSVKISCKASGYAFSSYWMNWVKQRPGQGLEWIGQIWPGDGDTNYNGKFKGKATLTADESSSTAYMQLSSLASEDSAVYFCARRETTTVGRYYYAMDYWGQGTTVTVSSASTKGPSVFPLAPSSKSTSGGTAALGCLVKDYFPEPVTVSWNSGALTSGVHTFPAVLQSSGLYSLSSVVTVPSSSLGTQTYICNVNHKPSNTKVDKKVEPKSCGGGGSGGGGSGGGGSGGGGSQAVVTQEPSLTVSPGGTVTLTCRSSTGAVTTSNYANWVQQKPGQAPRGLIGGTNKRAPWTPARFSGSLLGGKAALTITGAQAEDEADYYCALWYSNLWVFGGGTKLTVLGGGGSDKTHTCPPCPAPEAAGPSVFLFPPKPKDTLMISRTPEVTCVVVDVSHEDPEVKFNWYVDGVEVHNAKTKPREEQYNSTYRVVSVLTVLHQDWLNGKEYKCKVSNKALPAPIEKTISKAKGQPREPQVYTLPPSREEMTKNQVSLSCAVKGFYPSDIAVEWESNGQPENNYKTTPPVLDSDGSFFLVSKLTVDKSRWQQGNVFSCSVMHEALHNRFTQKSLSLSPG
light: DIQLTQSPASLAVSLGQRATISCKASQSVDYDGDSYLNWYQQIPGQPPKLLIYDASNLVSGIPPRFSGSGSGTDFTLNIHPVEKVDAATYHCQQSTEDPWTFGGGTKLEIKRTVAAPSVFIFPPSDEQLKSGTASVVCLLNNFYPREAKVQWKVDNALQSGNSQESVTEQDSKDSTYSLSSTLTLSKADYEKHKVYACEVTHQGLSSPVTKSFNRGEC
notes: CD19 Fabs, central CD3 Fv
- EC50 (CD3): 1.46 µg/mL
